The record followed here is US20220387555A1 (LUDWIG INSTITUTE FOR CANCER RESEARCH, published 2022).

In the assay the target is T1, human PDL1 protein (human, UniProt Q9NZQ7 19-238, limits assumed).
T1 construct: Plate-coated protein
Nature of the assay: titration ELISA, plates coated with human PD-L1, soluble monomeric decoy, anti-His tag detection.

T1 sequence (Q9NZQ7 19-238 limits assumed): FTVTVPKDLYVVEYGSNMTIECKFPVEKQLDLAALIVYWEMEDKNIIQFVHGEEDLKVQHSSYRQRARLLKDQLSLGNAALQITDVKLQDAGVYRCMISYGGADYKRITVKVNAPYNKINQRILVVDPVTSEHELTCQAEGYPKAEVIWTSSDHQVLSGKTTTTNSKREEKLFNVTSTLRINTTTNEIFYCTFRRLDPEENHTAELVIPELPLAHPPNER

B1: PD1_4XMUT_M70 (with 6xHis) (receptor)
chain: MASDSPDRPWNPPTFSPALLVVTEGDNATFTCSFSNTSESFVLNWYRMSPSNQDDRLAAFPEDRSQPGQDARFRVTQLPNGRDFHMSVVRARRNDSGTYFCGAISLAPKAKIKESLRAELRVTERRALEHHHHHH
notes: also called soluble monomeric PD1 decoy variant
In the case of B1, the “fold better binding than the WT PD1 decoy” value is 10 fold.

B2: PD1_6XDM (with 6xHis) (receptor)
chain: MASDSPDRPWNPPTFSPALLVVTEGDNATFTCSFSNTSESFVLNWYRMSPSNQVDRLAAFPEDRSQPGQDARFRVTQLPNGRDFHMSVVRARRNDSGTYFCGAISLAPKWKIKESLRAELRVTERRALEHHHHHH
notes: also called PD-1 decoy variant 6XDM; soluble monomeric PD1 decoy variant
Regarding B2, the “fold better binding than the WT PD1 decoy” value was ~7.5 fold.
